From publication PMC5584228

Tests used:
[1] = biological target: Fc hole chain with F405K (Y349C/T366S/L368A/Y407V/F405K), of mutants KiHss-Kh, KiHss-AkKh and KiHss-KkKh (human); experiment: non-reducing SDS-PAGE of co-expressed chains; scFv-Fc chain (A) and Fc chain (B) co-transfected 1:1 in HEK 293H; secreted Fcs purified by Protein A; disulphide-linked dimers AA, AB and BB told apart by size and quantified by densitometry (ImageLab)
[2] = biological target: Fc hole chain of mutant KiHss (Y349C/T366S/L368A/Y407V) (human); experiment: as above

| heterodimeric Fc (AB), percent of total Fcs [1] [%] | heterodimeric Fc (AB), percent of total Fcs [2] [%] | Substance |
| --- | --- | --- |
| > 80 | 73 | scFv-Fc knob chain of mutant KiHss (S354C/T366W) (Fc fusion) |
| 94 | – | scFv-Fc knob chain of mutant KiHss-AkKh (S354C/T366W/K409A) (Fc fusion) |
| – | > 80 | scFv-Fc knob chain with F405K (S354C/T366W/F405K), of mutants KiHss-Kk and KiHss-KkKh (Fc fusion) |
